Reference: article PMC8336837, “Structure of the human C9orf72-SMCR8 complex reveals a multivalent protein interaction architecture” (PLoS Biology, 2021)
One block for each binder: values may come before it.

Legend:
C9orf72 (full-length) = target: T1, C9orf72 (full-length) (human, UniProt Q96LT7 1-481); assay: SEC; limited proteolysis: full-length C9orf72-SMCR8-WDR41 complex (0.93 mg) with trypsin (4.6 ug) 20 minutes on ice, then size-exclusion chromatography; bands of the peak fraction identified by tandem mass spectrometry; conditions: both partners purified
T1 construct: C9orf72, human, the longer isoform (481 AA); open reading frame commercially synthesized with codon optimization; also called Fl-C9orf72; C9orf72 Fl; source: Sf-9 insect cells, co-expressed with SMCR8 or SMCR8N-C, purified (Strep-Tactin, size-exclusion chromatography)
T1 sequence (looked up): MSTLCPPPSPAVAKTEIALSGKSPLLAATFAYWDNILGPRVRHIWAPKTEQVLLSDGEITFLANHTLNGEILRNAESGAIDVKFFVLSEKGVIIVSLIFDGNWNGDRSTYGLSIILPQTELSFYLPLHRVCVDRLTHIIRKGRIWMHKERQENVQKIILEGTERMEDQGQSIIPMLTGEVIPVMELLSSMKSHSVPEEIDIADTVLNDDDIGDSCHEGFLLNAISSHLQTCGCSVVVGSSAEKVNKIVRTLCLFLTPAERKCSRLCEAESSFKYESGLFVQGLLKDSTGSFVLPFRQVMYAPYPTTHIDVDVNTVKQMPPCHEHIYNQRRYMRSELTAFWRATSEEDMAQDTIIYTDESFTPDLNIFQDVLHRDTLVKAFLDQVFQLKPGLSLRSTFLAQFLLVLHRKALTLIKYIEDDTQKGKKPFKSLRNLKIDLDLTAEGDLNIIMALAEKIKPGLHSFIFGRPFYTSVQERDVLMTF

[1] = target: T2, full-length C9orf72-SMCR8 complex (GST-tagged) (human, UniProt Q96LT7 1-481; Q8TEV9 1-937); assay: SEC; reconstitution of the trimeric complex from purified C9orf72-SMCR8 and WDR41; Superose 6 10/300 GL, 20 mM HEPES pH 8.0, 150 mM NaCl, 2 mM DTT, 3% glycerol; conditions: both partners purified
T2 construct: C9orf72, human, the longer isoform (481 AA); codon-optimised synthetic open reading frame; SMCR8, human, from a human cDNA library; GST on C9orf72 is stated for the GST pull-down; also called GST-tagged C9orf72-SMCR8; source: Sf-9 insect cells, the two proteins co-expressed, purified (Strep-Tactin, size-exclusion chromatography); not shown: GST, N-terminal, kept
T2 sequence (looked up) 1: T1 sequence (looked up)
T2 sequence (looked up) 2: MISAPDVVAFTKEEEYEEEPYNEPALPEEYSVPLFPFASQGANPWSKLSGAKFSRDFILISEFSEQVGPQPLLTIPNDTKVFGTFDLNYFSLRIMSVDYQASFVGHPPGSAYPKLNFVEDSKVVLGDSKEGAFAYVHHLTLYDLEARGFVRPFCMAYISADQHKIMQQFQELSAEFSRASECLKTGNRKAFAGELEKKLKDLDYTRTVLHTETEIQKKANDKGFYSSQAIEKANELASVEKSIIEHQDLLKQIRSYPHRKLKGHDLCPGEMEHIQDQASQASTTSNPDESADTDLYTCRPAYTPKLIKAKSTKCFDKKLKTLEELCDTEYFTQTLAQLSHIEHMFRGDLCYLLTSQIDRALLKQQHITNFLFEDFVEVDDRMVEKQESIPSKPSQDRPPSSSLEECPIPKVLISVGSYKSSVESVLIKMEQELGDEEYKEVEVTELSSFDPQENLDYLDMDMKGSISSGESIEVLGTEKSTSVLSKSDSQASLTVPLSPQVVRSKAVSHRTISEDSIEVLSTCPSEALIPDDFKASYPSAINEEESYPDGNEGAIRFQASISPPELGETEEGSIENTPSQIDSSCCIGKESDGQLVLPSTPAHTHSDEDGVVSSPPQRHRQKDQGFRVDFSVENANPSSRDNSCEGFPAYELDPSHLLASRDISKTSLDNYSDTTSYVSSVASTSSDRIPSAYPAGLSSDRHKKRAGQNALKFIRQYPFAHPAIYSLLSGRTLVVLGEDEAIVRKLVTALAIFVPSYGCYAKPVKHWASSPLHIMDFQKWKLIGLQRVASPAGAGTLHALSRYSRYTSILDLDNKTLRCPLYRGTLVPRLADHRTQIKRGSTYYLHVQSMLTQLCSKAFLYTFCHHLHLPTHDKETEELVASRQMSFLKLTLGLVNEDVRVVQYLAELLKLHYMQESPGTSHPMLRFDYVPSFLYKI

SMCR8 (full-length) = target: T3, SMCR8 (full-length) (human, UniProt Q8TEV9 1-937); assay: cross-linking; DSSO (0.5 to 10 mM, 1 hour at room temperature) on C9orf72-SMCR8 complex mixed with WDR41 in equimolar ratio (200 pmol) in 20 mM HEPES pH 8.0, 150 mM NaCl, 2 mM DTT, 3% glycerol; mass spectrometry after digestion; conditions: both partners purified
T3 construct: SMCR8, human, open reading frame amplified from a human cDNA library; residues 1-937; also called SMCR8 Fl; source: Sf-9 insect cells, co-expressed with C9orf72, purified (Strep-Tactin, size-exclusion chromatography)
T3 sequence (looked up): T2 sequence (looked up) 2

[2] = target: T4, Strep-SMCR8ΔCC (SMCR8 mutant lacking its coiled-coil region) (human, UniProt Q8TEV9 1-937, missing residues 181 to 250); assay: affinity purification with mass spectrometry; Strep-SMCR8 (WT or ΔCC) and C9orf72 transfected into HEK293T; cells fed or starved 90 minutes (amino acid- and glucose-free media) before lysis; magnetic Strep-Tactin beads; label-free quantification (LFQ), triplicates; conditions: partners not purified
T4 construct: SMCR8, human, lacking the coiled-coil region (missing residues 181 to 250); Cloned into pOPINE-3C-eGFP; source: HEK293T, transfected together with C9orf72, in lysate; not shown: twin-strep, N-terminal, kept
T4 sequence (looked up): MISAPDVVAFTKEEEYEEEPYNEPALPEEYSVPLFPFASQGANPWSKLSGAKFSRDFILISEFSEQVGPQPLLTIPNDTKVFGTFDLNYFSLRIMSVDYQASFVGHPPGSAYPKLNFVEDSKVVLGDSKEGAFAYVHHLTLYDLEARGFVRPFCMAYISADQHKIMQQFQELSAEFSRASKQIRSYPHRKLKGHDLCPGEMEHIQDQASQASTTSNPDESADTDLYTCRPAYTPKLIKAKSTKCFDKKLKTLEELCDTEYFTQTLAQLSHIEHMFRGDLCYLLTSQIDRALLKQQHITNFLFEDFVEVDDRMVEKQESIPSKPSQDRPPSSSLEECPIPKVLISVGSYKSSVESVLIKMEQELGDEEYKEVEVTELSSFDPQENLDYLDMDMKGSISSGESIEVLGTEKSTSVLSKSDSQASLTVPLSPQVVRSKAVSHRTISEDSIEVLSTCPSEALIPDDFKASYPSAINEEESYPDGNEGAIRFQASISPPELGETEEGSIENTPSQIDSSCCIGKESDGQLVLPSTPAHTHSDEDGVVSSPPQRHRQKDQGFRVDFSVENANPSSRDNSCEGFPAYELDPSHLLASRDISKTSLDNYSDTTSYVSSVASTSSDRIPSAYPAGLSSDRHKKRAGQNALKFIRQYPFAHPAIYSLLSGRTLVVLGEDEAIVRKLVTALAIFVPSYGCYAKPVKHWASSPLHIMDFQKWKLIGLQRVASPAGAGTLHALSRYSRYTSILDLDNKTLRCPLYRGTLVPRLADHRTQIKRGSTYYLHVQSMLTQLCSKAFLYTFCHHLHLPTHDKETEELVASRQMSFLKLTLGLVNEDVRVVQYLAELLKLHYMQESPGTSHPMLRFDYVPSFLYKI

binding result (C9orf72 (full-length)): binds
B1: N-terminal domain of SMCR8 (SMCR8N), tryptic fragment (domain or fragment, human, UniProt Q8TEV9 1-439, looked up)
chain: MISAPDVVAFTKEEEYEEEPYNEPALPEEYSVPLFPFASQGANPWSKLSGAKFSRDFILISEFSEQVGPQPLLTIPNDTKVFGTFDLNYFSLRIMSVDYQASFVGHPPGSAYPKLNFVEDSKVVLGDSKEGAFAYVHHLTLYDLEARGFVRPFCMAYISADQHKIMQQFQELSAEFSRASECLKTGNRKAFAGELEKKLKDLDYTRTVLHTETEIQKKANDKGFYSSQAIEKANELASVEKSIIEHQDLLKQIRSYPHRKLKGHDLCPGEMEHIQDQASQASTTSNPDESADTDLYTCRPAYTPKLIKAKSTKCFDKKLKTLEELCDTEYFTQTLAQLSHIEHMFRGDLCYLLTSQIDRALLKQQHITNFLFEDFVEVDDRMVEKQESIPSKPSQDRPPSSSLEECPIPKVLISVGSYKSSVESVLIKMEQELGDEEYK
notes: SMCR8, human, residues 1 to 439, product of limited proteolysis identified by mass spectrometry; source: Sf-9 insect cells; purified full-length C9orf72-SMCR8-WDR41 complex cut with trypsin

binding result (C9orf72 (full-length)): binds
B2: carboxyl-terminal domain of SMCR8 (SMCR8C), tryptic fragment (domain or fragment, human, UniProt Q8TEV9 620-937, looked up)
chain: RQKDQGFRVDFSVENANPSSRDNSCEGFPAYELDPSHLLASRDISKTSLDNYSDTTSYVSSVASTSSDRIPSAYPAGLSSDRHKKRAGQNALKFIRQYPFAHPAIYSLLSGRTLVVLGEDEAIVRKLVTALAIFVPSYGCYAKPVKHWASSPLHIMDFQKWKLIGLQRVASPAGAGTLHALSRYSRYTSILDLDNKTLRCPLYRGTLVPRLADHRTQIKRGSTYYLHVQSMLTQLCSKAFLYTFCHHLHLPTHDKETEELVASRQMSFLKLTLGLVNEDVRVVQYLAELLKLHYMQESPGTSHPMLRFDYVPSFLYKI
notes: SMCR8, human, residues 620 to 937, product of limited proteolysis identified by mass spectrometry; source: Sf-9 insect cells; purified full-length C9orf72-SMCR8-WDR41 complex cut with trypsin

binding result [1]: binds
binding result (SMCR8 (full-length)): binds
B3: WDR41 (full-length) (natural protein, human, UniProt Q9HAD4 1-459, looked up)
chain: MLRWLIGGGREPQGLAEKSPLQTIGEEQTQNPYTELLVLKAHHDIVRFLVQLDDYRFASAGDDGIVVVWNAQTGEKLLELNGHTQKITAIITFPSLESCEEKNQLILTASADRTVIVWDGDTTRQVQRISCFQSTVKCLTVLQRLDVWLSGGNDLCVWNRKLDLLCKTSHLSDTGISALVEIPKNCVVAAVGKELIIFRLVAPTEGSLEWDILEVKRLLDHQDNILSLINVNDLSFVTGSHVGELIIWDALDWTMQAYERNFWDPSPQLDTQQEIKLCQKSNDISIHHFTCDEENVFAAVGRGLYVYSLQMKRVIACQKTAHDSNVLHVARLPNRQLISCSEDGSVRIWELREKQQLAAEPVPTGFFNMWGFGRVSKQASQPVKKQQENATSCSLELIGDLIGHSSSVEMFLYFEDHGLVTCSADHLIILWKNGERESGLRSLRLFQKLEENGDLYLAV
notes: WDR41, human, open reading frame amplified from a human cDNA library; also called WDR41 Fl; source: Sf-9 insect cells, expressed individually, purified (Strep-Tactin, size-exclusion chromatography)

fold increase of WDR41 (LFQ) against SMCR8 WT fed, fed cells [2]: ~4.5 fold
fold increase of WDR41 (LFQ) against SMCR8 WT fed, starved cells [2]: ~5.5 fold
B4: WDR41 (in HEK293T cells) (natural protein, human (endogenous in HEK293T), UniProt Q9HAD4 1-459, looked up)
chain: B3 chain
notes: WDR41, found by mass spectrometry in Strep-Tactin purifications from HEK293T cells (only SMCR8 and C9orf72 plasmids were transfected); source: endogenous, HEK293T lysate
